# System: HEK293FT cells transfected with TF library
# Assay: Screening of TF condensates based on fluorescent puncta
# Type: cell-based
# Conditions: Figure 1B numerical data; TF library screen, one value per transcriptional factor
# Method in brief: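 Puncta scoring used automated confocal imaging of fifty random fields per well, after anti-Flag or anti-GAL4 immunofluorescence (Alexa 488) in PFA-fixed cells. HEK293FT cells carried TF library plasmids delivered with PEI (1.6 μg/ml DNA). At 60 h they were switched for 12 h to glucose-containing or glucose-free medium.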
row,Molecule,Z score of condensed fraction
1,"CEBPG (protein, UniProt P53567 1-150, looked up) CCAAT/enhancer-binding …: MSKISQQNSTPGVNGISVIHTQAHASGLQQVPQLVPAGPGGGGKAVAPSKQSKKSSPMDRNSDEYRQRRERNNMAVKKSRLKSKQKAQDTLQRVNQLKEENERLEAKIKLLTKELSVLKDLFLEHAHNLADNVQSISTENTTADGDNAGQ",0.2566
2,"ZZZ3 (protein, UniProt Q8IYH5 1-903, looked up) ZZ-type zinc …: MAASRSTRVTRSTVGLNGLDESFCGRTLRNRSIAHPEEISSNSQVRSRSPKKRPEPVPIQKGNNNGRTTDLKQQSTRESWVSPRKRGLSSSEKDNIERQAIENCERRQTEPVSPVLKRIKRCLRSEAPNSSEEDSPIKSDKESVEQRSTVVDNDADFQGTKRACRCLILDDCEKREIKKVNVSEEGPLNSAVVEEITGYLAVNGVDDSDSAVINCDDCQPDGNTKQNSIGSYVLQEKSVAENGDTDTQTSMFLDSRKEDSYIDHKVPCTDSQVQVKLEDHKIVTACLPVEHVNQLTTEPATGPFSETQSSLRDSEEEVDVVGDSSASKEQCKENTNNELDTSLESMPASGEPEPSPVLDCVSAQMMSLSEPQEHRYTLRTSPRRAAPTRGSPTKNSSPYRENGQFEENNLSPNETNATVSDNVSQSPTNPGEISQNEKGICCDSQNNGSEGVSKPPSEARLNIGHLPSAKESASQHITEEEDDDPDVYYFESDHVALKHNKDYQRLLQTIAVLEAQRSQAVQDLESLGRHQREALKNPIGFVEKLQKKADIGLPYPQRVVQLPEIVWDQYTHSLGNFEREFKNRKRHTRRVKLVFDKVGLPARPKSPLDPKKDGESLSYSMLPLSDGPEGSSSRPQMIRGRLCDDTKPETFNQLWTVEEQKKLEQLLIKYPPEEVESRRWQKIADELGNRTAKQVASRVQKYFIKLTKAGIPVPGRTPNLYIYSKKSSTSRRQHPLNKHLFKPSTFMTSHEPPVYMDEDDDRSCFHSHMNTAVEDASDDESIPIMYRNLPEYKELLQFKKLKKQKLQQMQAESGFVQHVGFKCDNCGIEPIQGVRWHCQDCPPEMSLDFCDSCSDCLHETDIHKEDHQLEPIYRSETFLDRDYCVSQGTSYNYLDPNYFPANR",-0.9122
3,"CEBPD (protein, UniProt P49716 2-269, looked up) CCAAT/enhancer-binding …: SAALFSLDGPARGAPWPAEPAPFYEPGRAGKPGRGAEPGALGEPGAAAPAMYDDESAIDFSAYIDSMAAVPTLELCHDELFADLFNSNHKAGGAGPLELLPGGPARPLGPGPAAPRLLKREPDWGDGDAPGSLLPAQVAACAQTVVSLAAAGQPTPPTSPEPPRSSPRQTPAPGPAREKSAGKRGPDRGSPEYRQRRERNNIAVRKSRDKAKRRNQEMQQKLVELSAENEKLHQRVEQLTRDLAGLRQFFKQLPSPPFLPAAGTADCR",-0.4872
4,"AATF (protein, UniProt Q9JKX4 2-526, looked up) Protein AATF: AAPQPLALQLEQLLNPRPREADPEADPEEATRARVIDRFDEGEEEKDDLAVSSIRKLAPVSLLDTDKRYSGKTTSRKAWKEDHWEQALPSSSDNEASDEGGSEDGDSEGLGLEEISEDVDEDLEDNKISDEGGSEDGDSEGLGLEEFSEDVEEDLEGEDEEDREEDRNSEDDGVVAAFSSVKVSEEVEKGRAVKNQIALWDQLLEGRIKLQKALLTTNQLPQPDVFPVFKDKGGPEFASALKNSHKALKALLRSLVDLQEELLFQYPDTRHIVNGAKPNTESEEISSEDDELVGEKKKQRKAPPKRKLEMEDYPSFMAKRFADFTIYRNHTLQKWHDKTKLASGKLGKGFGAFERSILTQIDHIMMDKERLLRRTQTKRSAYRVLGKPEPVPEPVAETLPGEPETLPQGPANAHLRDLDEEIFDDDDFYHQLLRELIERKTSSLDPNDQVAMGRQWLAIQKLRSKIRKKVDRKASKGRKLRFHVLSKLLSFMAPIDHTAMSDDARTELFRSLFGQLNPPDADRGK",-0.6879
5,"CEBPE (protein, UniProt Q15744 1-281, looked up) CCAAT/enhancer-binding …: MSHGTYYECEPRGGQQPLEFSGGRAGPGELGDMCEHEASIDLSAYIESGEEQLLSDLFAVKPAPEARGLKGPGTPAFPHYLPPDPRPFAYPPHTFGPDRKALGPGIYSSPGSYDPRAVAVKEEPRGPEGSRAASRGSYNPLQYQVAHCGQTAMHLPPTLAAPGQPLRVLKAPLATAAPPCSPLLKAPSPAGPLHKGKKAVNKDSLEYRLRRERNNIAVRKSRDKAKRRILETQQKVLEYMAENERLRSRVEQLTQELDTLRNLFRQIPEAANLIKGVGGCS",-0.2607

# From publication PMC11574045, “A cofactor-induced repressive type of transcription factor condensation can be induced by synthetic peptides to suppress tumorigenesis” (The EMBO Journal, 2024)
